Measured values published in paper PMC2976847 (Frontiers in bioscience : a journal and virtual library, 2008).
Values joined by “and” are separate entries in the source; they are usually repeats but may differ in a detail not shown here. Equal entries are not always repeated.

Target: the molecule itself
Experiment: native gel or EMSA

B1: Stat5a (wild type), from Epo-stimulated 293T cells (natural protein)
chain: MAGWIQAQQLQGDALRQMQVLYGQHFPIEVRHYLAQWIESQPWDAIDLDNPQDRGQATQLLEGLVQELQKKAEHQVGEDGFLLKIKLGHYATQLQNTYDRCPMELVRCIRHILYNEQRLVREANNCSSPAGVLVDAMSQKHLQINQRFEELRLITQDTENELKKLQQTQEYFIIQYQESLRIQAQFAQLGQLNPQERMSRETALQQKQVSLETWLQREAQTLQQYRVELAEKHQKTLQLLRKQQTIILDDELIQWKRRQQLAGNGGPPEGSLDVLQSWCEKLAEIIWQNRQQIRRAEHLCQQLPIPGPVEEMLAEVNATITDIISALVTSTFIIEKQPPQVLKTQTKFAATVRLLVGGKLNVHMNPPQVKATIISEQQAKSLLKNENTRNECSGEILNNCCVMEYHQATGTLSAHFRNMSLKRIKRADRRGAESVTEEKFTVLFESQFSVGSNELVFQVKTLSLPVVVIVHGSQDHNATATVLWDNAFAEPGRVPFAVPDKVLWPQLCEALNMKFKAEVQSNRGLTKENLVFLAQKLFNISSNHLEDYNSMSVSWSQFNRENLPGWNYTFWQWFDGVMEVLKKHHKPHWNDGAILGFVNKQQAHDLLINKPDGTFLLRFSDSEIGGITIAWKFDSPDRNLWNLKPFTTRDFSIRSLADRLGDLNYLIYVFPDRPKDEVFAKYYTPVLAKAVDGYVKPQIKQVVPEFVNASTDAGASATYMDQAPSPVVCPQPHYNMYPPNPDPVLDQDGEFDLDESMDVARHVEELLRRPMDSLDARLSPPAGLFTSARSSLS
  stoichiometry N: 4 and 2
